Reference: a protein production outcome set (Wang et al. 2014)

Experiment: label from the status in PepcDB records
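Further: failed if final PepcDB status was selected cloned or expressed and not failed if soluble or beyond.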

In the case of “MENETGGKDREVVEAVTNSEPGNGDGFAKKGDSYDDKLPSENVDKHMENEANEKEKEEDGAADELCALQDALETTLFQHLSNYAQKQMLQKLRSLRAKERKELSGEWKSLLAQEALLKSKKYSFSAELANATFHTWEEETRRMVL”, the protein production is reported as “not failed”.

With “GLEVTVWNRSAAACEPLVALGAARAEEVGELFGLDVVISMLADDQAIRGVLLDSGALERARPGLIHLSMSTLSLDCVEALDQAHQRQGLAFVAAPVFGRTDVAEAGKLNIVVGGPEEAIEQVKALLEIMGQKTWFFGKDPRGAMAVKISGNFMIASAIESMGESVALVKRLGVEPGRFMELMSSTLFDAPVYRNYGPQIVEQRFTPARFRLVLGLKDVDLALSAGKRHNVPLPLASLLHDVLLEAIAHGDGESDWTALAKVALSRSGQI” the protein production was “failed”.

In the case of “MESYSQRQDHELQALEAIYGSDFQDLRPDARGRVREPPEINLVLYPQGLAGEEVYVQVELRVKCPPTYPDVVPEIDLKNAKGLSNESVNLLKSHLEELAKKQCGEVMIFELAHHVQSFLSEHNK”, the protein production is reported as “not failed”.

In the case of “MCENEEYRERFPDKHFDLETVLQAKVRPICVVPERTFIGFFHREKSKEEEEKEDVSLDFLKGVMSFDSIWEEIMKQEPEESASEHVIYIVSWNDHYFVLLVNHDAYYIIDTLGERVYEGCNQAYVLKFDQDAEIKRLPSVIKDNKADMGSQKQGGKNKYEQPERSKESEEQGEEVVVCRGKESCREYIKSFLAAIPIQQVKADMKEGLVSSFHHRLQIELYYTKHLHHRQPNMFESSTTKVTVSEATVSMTVAWLLASQFSNSGGFGCEMAELLGIKV”, the protein production is reported as “failed”.

For “MSHTKIMSTDQLETQITELDNLPEHREIVTFMRRSAPLNTSQRSALEQYQDLILEYPVGDLRQHFEHPEHPLTVEIGFGMGRSLVLMAKAHPERNFVGIEVHVPGIAQCVYEAGMAGLKNLRVLDADAIQVLREMPDNSINCVQLYFPDPWQKKRHFKRRFVIHERMQLVEQKLELGGTFHAATDWEPYAEWMLDVLDNRPALENLAGKGNSYPRPEWRPQTKFERRGIESGHKINDFIFKKIGS”, the protein production was “failed”.

In the case of “MFVSHGAIVKSAPKHWNGSKCPIRMQVRVPDPDRRSLLRAGAHIILGGLLATVIPGTSPSIAKIREKPTDKGEEAPKIDDEKELDKYVSGLKYEEELYENPDPAEKEVYRTPRVEREPEYKKKEDEILEKESKVLKEEAREAARESEVLRQEFEKR”, the protein production is reported as “not failed”.

With “MANSIDLIGYVHQPVQFDSTLDGKFWAGTVISHEPSSDSKSESDSSSNFWIPVLFEGDLAHTANSYLKKNDRVHITGQILGDVIQSGANSDQAHVQLFKSFHGSFSHQVMVRD” the protein production was “failed”.

With “MSLANQTTKTLGLVMPSSASKAFQNPFFPEVIRGISSFAHVEGYALYMSTGETEEEIFNGVVKMVQGRQIGGIILLYSRENDRIIQYLHEQNFPFVLIGKPYDRKDEITYVDNDNYTAAREVAEYLISLGHKQIAFIGGGSDLLVTRDRLAGMSDALKLADIVLPKEYILHFDFSRESGQQAVEELMGLQQPPTAIMATDDLIGLGVLSALSKKGFVVPKDVSIVSFNNALLSEIASPPLSTVDVNIYQLGYEAAKALVDKVENAESTAKCIIIPHKLLKRQTCEGHHHHHH” the protein production was “not failed”.

For “ENDVRVETTLHQNTRIYDVRGQLFFSSSERFAKAFDFQENVAHVIIDLTHSHIWDVTTVASLDHIVDKFQKNGIQVTVKGLNEASSIMIEQYGTHSKI”, the protein production was “failed”.

In the case of “MKTDIILAGVGGQGILSIAAAIGSAALTNNLYLKQAETHGMSQRGGDVQSFLRLSDAPIYSDLIPIGGADLILSVEPMEALRYLPYLKPDGYVVTNTVPFINIPNYPETTSVISKIESLPHHVLIDADSIARDEVGNVRASNFVMLGAASPFIEIPFDYLAGGIEAIFSRKGQEVVDMNLKALNAGREFALRYAAGK”, the protein production is reported as “not failed”.
